Test [1] concerns the target T1, EGFR on NR6 fibroblast cells (UniProt P00533 25-1210, limits assumed).
T1 construct: whole, on cells; also called fibroblast cells expressing EGFR; NR6 fibroblasts
Briefly: competition with Alexa-488 labeled wt EGF on NR6 fibroblast cells, flow cytometry, 2 hr at 4 C. On the technique in general: In flow cytometry, cells or beads pass a laser one at a time.
Description: (§1) Fluorescence intensity of cell surface labeling was measured by flow cytometry.

In test [2] the target is T1, EGFR on NR6 fibroblast cells. The test is described as follows: competition for binding to fibroblast cells, flow cytometry.
Description: as §1

As a reminder, the Kd is a measure of binding affinity in units of concentration. Low readings indicate a tighter complex, high ones a looser complex. For orientation: IC50 means the concentration needed to halve the response being measured.

B1: EGF mutant clone 30 (soluble) (ligand)
chain: SSNSGCPLSHDGYCLHDGVCMYIEALDRYACNCVVGYAGERCQYRDLKWWELR
notes: Produced solubly
In test [1], B1 returned a Kd of 0.56 nM.

B2: EGF mutant clone 121 (competitor on NR6 cells) (ligand)
chain: NSDPKCPLSHEGYCLNDGVCMYIGTLDRYACNCVVGYVGERCQYRDLKWLALR
On to B2, for which, in test [2], the IC50 was 0.14 nM.

The record behind these values is US20080249008A1 (published 2008).
